Test [1] has as its system MKN45 cells expressing c-Met. The test can be described thus: Endocytosis of anti c-Met antibody in MKN45 cells (FACS). Type of test: cell-based, human. The settings on record: MKN45, 10 μg/mL antibody. The source says: Antibodies of the invention bind to human c-Met, and have very good in vitro activity and good activity in inhibiting tumor activity in vivo. […] In order to detect whether the antibodies would be internalized into the cell along with human c-Met once bound to human c-Met, human gastric cancer cell line MKN45 (JCRB, Cat No.: JCRB0254) expressing c-Met was used for evaluation.
MKN45 cells were resuspended to 10,000,000 cells/mL in RPMI 1640 medium (GIBCO, Cat No.: 11835-030), which contains 10% (v/v) FBS (GIBCO, Cat No.: 10099-141) and penicillin/streptomycin (GIBCO, Cat No.: 15070-063). 2 mL resuspended MKN45 cells were added to a 96-well microtiter plate with 250,000 cells/well, and 10 μg/mL of c-Met antibody was added to the corresponding wells and the final volume was 100 μL. The plate was incubated at 4° C. for 1 hour. FACS buffer (phosphate buffer solution including 2.5% fetal bovine serum; Hyclone, Cat: SH30256.01B) was added and the plate was centrifuged at 4° C., 1300 rpm for 4 minutes. The supernatant was discarded and this procedure was repeated three times. 100 μL secondary antibody solution (Fluorescence labeled goat anti mouse secondary antibodies at 1:200 dilution, Biolegend, Cat #405307; Fluorescence labeled anti-human secondary antibody at 1:30 dilution, Biolegend, Cat #409304) was added into each well. The plate was incubated at 4° C. for 1 hour. FACS buffer was added and the plate was centrifuged at 4° C., 1300 rpm for 4 minutes. The supernatant was discarded and this procedure was repeated three times. Complete cell culture medium (RPMI 1640 medium with 10% FBS) was added and was incubated at 37° C. in 5% CO2 for 0, 0.5, 1, 2, 4 hours. 5 μL 7-AAD (Biolegend, Cat:420403) was added to 100 μL FACS buffer which was added to each well, and the plate was incubated at 4° C. for 30 minutes. FACS buffer was added and the plate was centrifuged at 4° C., 1300 rpm for 4 minutes. The supernatant was discarded and this procedure was repeated three times. 200 μL Stripping buffer (0.05 M glycine, pH 3.0; 0.1 M NaCl, mixed at 1:1 (v/v)) was added to each well. The cells were resuspended and were incubated for 7 minutes at room temperature. The cells were centrifuged at room temperature at 1300 rpm for 4 minutes, and the supernatant was discarded. 200 μL neutralizing wash buffer (0.15M trihydroxymethyl aminomethane, pH 7.4) was added to each well, the cells were resuspended and centrifuged at room temperature at 1300 rpm for 4 minutes, and the supernatant was discarded. 200 μL FACS buffer was added and the cells were resuspended. The prepared samples were detected by flow cytometry (BD FACS Calibur).
Endocytosis of c-Met antibody %=(intensity of fluorescence at each time point−mean intensity of fluorescence at time 0)/mean intensity of fluorescence at time 0.

Another test deals with T1, human c-Met-His (Homo sapiens, UniProt P08581).
T1 construct: His tag (6xHis) (C); made in house; host or cells: 293F cells (Invitrogen, Cat # R790-07); vector pEE6.4; c-Met gene template origene RC217003
T1 sequence (P08581 with tags, fused parts or gaps limits assumed): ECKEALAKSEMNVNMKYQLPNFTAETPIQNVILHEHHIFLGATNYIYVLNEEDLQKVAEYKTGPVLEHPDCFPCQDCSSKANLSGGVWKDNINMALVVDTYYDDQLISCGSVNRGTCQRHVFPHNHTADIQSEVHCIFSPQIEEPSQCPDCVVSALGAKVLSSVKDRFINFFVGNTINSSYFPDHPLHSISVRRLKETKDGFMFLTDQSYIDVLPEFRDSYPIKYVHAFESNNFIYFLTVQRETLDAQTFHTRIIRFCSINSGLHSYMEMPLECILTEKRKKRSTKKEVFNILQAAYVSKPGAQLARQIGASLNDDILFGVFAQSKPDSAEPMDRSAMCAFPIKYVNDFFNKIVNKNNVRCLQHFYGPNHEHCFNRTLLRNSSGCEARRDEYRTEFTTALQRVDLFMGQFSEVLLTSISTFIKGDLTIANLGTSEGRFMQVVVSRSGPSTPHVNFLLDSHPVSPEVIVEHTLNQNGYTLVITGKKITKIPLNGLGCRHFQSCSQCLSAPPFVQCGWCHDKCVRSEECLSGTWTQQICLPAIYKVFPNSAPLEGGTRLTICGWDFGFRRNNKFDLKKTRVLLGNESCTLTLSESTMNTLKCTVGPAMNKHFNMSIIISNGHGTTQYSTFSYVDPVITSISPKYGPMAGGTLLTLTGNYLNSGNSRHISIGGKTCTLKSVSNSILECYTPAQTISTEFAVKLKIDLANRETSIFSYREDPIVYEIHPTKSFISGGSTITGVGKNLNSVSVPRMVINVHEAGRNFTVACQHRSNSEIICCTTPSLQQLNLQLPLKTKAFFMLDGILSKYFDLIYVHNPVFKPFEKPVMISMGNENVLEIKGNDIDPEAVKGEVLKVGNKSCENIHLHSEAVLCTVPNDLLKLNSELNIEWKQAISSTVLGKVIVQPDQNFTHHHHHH
The test can be described thus: ELISA binding of c-Met antibody to c-Met antigen. The following applies: humanized antibody. How it is done:
This experiment uses enzyme linked immunosorbent assay to detect affinity of c-Met antibody (including supermatant of hybridonma or recombinant expressed monoclonal antibodies) to c-Met antigen in vitro.
Experimental procedures: Coating buffer (PBS; Hyclone, Cat No.: SH30256.01B) was used to dilute antigen (human c-Met-His, example 1) to 2 μg/mL, which was added to a 96-well microplate at 100 μL/well (Costar 9018, Cat No.:03113024) and incubated overnight at 4° C. […] The plate was read with plate reader at 450 nm.
Murine anti-human c-Met monoclonal cell lines were obtained by immunizing mice, fusion of spleen cells, and screening of hybridomas. […] After the first booster immunization, mice serum was collected during 7 to 10 days after each booster immunization, and the titer was detected by ELISA (Methods were described in Example 2).
After immunization, mice with a serum titer higher than 1:10^5 were selected for cell fusion. Mouse B-cells and myeloma cells (SP2/0, ATCC number:CRL-1581™) were prepared respectively in aseptic conditions and counted. […] The next day, positive clones were detected by ELISA (see Methods in Example 2).
On the technique in general: In an ELISA, binding on a coated surface is turned into a signal by an enzyme label.

B1: Ab-9 (antibody)
heavy: QVTLKESGPVLVKPTETLTLTCTVSGFSLPNYGVHWVRQPPGKALEWLAVIWSGGSTNYAAAFVSRLRISKDTSKSQVVFTMNNMDPVDTATYYCARNHDNPYNYAMDYWGQGTTVTVSSASTKGPSVFPLAPCSRSTSESTAALGCLVKDYFPEPVTVSWNSGALTSGVHTFPAVLQSSGLYSLSSVVTVPSSNFGTQTYTCNVDHKPSNTKVDKTVERKCCVECPPCPAPPVAGPSVFLFPPKPKDTLMISRTPEVTCVVVDVSHEDPEVQFNWYVDGVEVHNAKTKPREEQFNSTFRVVSVLTVVHQDWLNGKEYKCKVSNKGLPAPIEKTISKTKGQPREPQVYTLPPSREEMTKNQVSLTCLVKGFYPSDIAVEWESNGQPENNYKTTPPMLDSDGSFFLYSKLTVDKSRWQQGNVFSCSVMHEALHNHYTQKSLSLSPGK
light: DIVLTQSPASLAVSPGQRATITCRANKSVSTSTYNYLHWYQQKPGQPPKLLIYLASNLASGVPARFSGSGSGTDFTLTINPVEANDTANYYCQHSRDLPPTFGQGTKLEIKRTVAAPSVFIFPPSDEQLKSGTASVVCLLNNFYPREAKVQWKVDNALQSGNSQESVTEQDSKDSTYSLSSTLTLSKADYEKHKVYACEVTHQGLSSPVTKSFNRGEC
One may read the EC50 as the midpoint of the concentration-response curve. Read a high EC50 as a less potent agent. B1: the endocytosis % in test [1] (0 h) stood at 0%; in test [1] (0.5 h), 26%; in test [1] (1 h), 32%; in test [1] (2 h), 32%; in test [1] (4 h), 31%. This molecule yielded an EC50 with human c-Met-His of 0.13 nM.

(Values after patent US20200054764A1, “MEDICAL USE OF ANTI-C MET ANTIBODY-CYTOTOXIC DRUG CONJUGATE” (priority 2016, published 2020).)
